# Measured values: the supplement of paper PMC9112550, “Optimization of the antimicrobial peptide Bac7 by deep mutational scanning” (BMC Biology, 2022)
# Tested on: Escherichia coli TOP10
# Test: shrunken log2 fold change of peptide-encoding DNA abundance (4.5 h post-induction vs induction); higher = less antimicrobial activity (less host growth inhibition)
# Settings: time post-induction: 4.5 h; library: site-saturation at positions 5, 18, 19, 20
# 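Note: peptides expressed intracellularly from a pBAD plasmid library in pooled LB shake-flask culture, induced with 0.3% L-arabinose, DNA abundance read by NGS, three biological replicates, DESeq2 with apeglm shrinkage.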
row,Sequence,shrunken log2 fold change
1,RRIRWRPPRLPRPRPRPVFYPRP,-0.193
2,RRIRIRPPRLPRPRPRPAKFPRP,-0.158
3,RRIRCRPPRLPRPRPRPEPAPRP,0.971
4,RRIRNRPPRLPRPRPRPHFGPRP,-0.104
5,RRIRRRPPRLPRPRPRPVVWPRP,0.643
6,RRIRKRPPRLPRPRPRPYKEPRP,-0.417
7,RRIRLRPPRLPRPRPRPVYMPRP,-0.283
8,RRIRLRPPRLPRPRPRPLSGPRP,0.15
9,RRIRPRPPRLPRPRPRPRNWPRP,0.195
10,RRIRNRPPRLPRPRPRPTLEPRP,0.041
11,RRIRSRPPRLPRPRPRPVYKPRP,-0.166
12,RRIRQRPPRLPRPRPRPLDEPRP,0.0698
13,RRIRWRPPRLPRPRPRPHPMPRP,0.408
14,RRIRLRPPRLPRPRPRPNERPRP,-0.0191
15,RRIRSRPPRLPRPRPRPKCGPRP,0.397
16,RRIRIRPPRLPRPRPRPTKNPRP,-0.355
17,RRIRDRPPRLPRPRPRPITFPRP,-0.822
18,RRIRGRPPRLPRPRPRPCEMPRP,0.852
19,RRIRSRPPRLPRPRPRPNMPPRP,-0.278
20,RRIRYRPPRLPRPRPRPKADPRP,0.0864
21,RRIRQRPPRLPRPRPRPKDSPRP,-0.135
22,RRIRARPPRLPRPRPRPISWPRP,0.508
23,RRIRIRPPRLPRPRPRPSQYPRP,-0.555
24,RRIRPRPPRLPRPRPRPIREPRP,0.31
25,RRIRTRPPRLPRPRPRPLATPRP,0.0927

row,Sequence,shrunken log2 fold change
1,RRIRTRPPRLPRPRPRPTSKPRP,-0.343
2,RRIRQRPPRLPRPRPRPHKDPRP,-0.105
3,RRIRNRPPRLPRPRPRPAWHPRP,0.259
4,RRIRNRPPRLPRPRPRPFVGPRP,-0.182
5,RRIRVRPPRLPRPRPRPPPEPRP,0.755
6,RRIRNRPPRLPRPRPRPAETPRP,-0.119
7,RRIRGRPPRLPRPRPRPAASPRP,0.947
8,RRIRDRPPRLPRPRPRPFTQPRP,-0.147
9,RRIRVRPPRLPRPRPRPINRPRP,-0.239
10,RRIRKRPPRLPRPRPRPNDTPRP,-0.11
11,RRIRHRPPRLPRPRPRPAYEPRP,0.0981
12,RRIRSRPPRLPRPRPRPYRKPRP,-0.901
13,RRIRCRPPRLPRPRPRPSYTPRP,-0.748
14,RRIRLRPPRLPRPRPRPLCCPRP,-0.146
15,RRIRHRPPRLPRPRPRPKTWPRP,-0.0101
16,RRIRMRPPRLPRPRPRPNCDPRP,0.194
17,RRIRPRPPRLPRPRPRPNGNPRP,-0.144
18,RRIRCRPPRLPRPRPRPPQHPRP,0.49
19,RRIRQRPPRLPRPRPRPGKAPRP,0.0185
20,RRIRHRPPRLPRPRPRPEPPPRP,0.545
21,RRIRARPPRLPRPRPRPPYQPRP,0.171
22,RRIRGRPPRLPRPRPRPHEYPRP,-0.325
23,RRIRPRPPRLPRPRPRPCYSPRP,-0.507
24,RRIRGRPPRLPRPRPRPPVQPRP,0.496
25,RRIRWRPPRLPRPRPRPAQAPRP,0.237

row,Sequence,shrunken log2 fold change
1,RRIRPRPPRLPRPRPRPNGLPRP,0.015
2,RRIRKRPPRLPRPRPRPMHPPRP,0.19
3,RRIRTRPPRLPRPRPRPLKSPRP,-0.0242
4,RRIRPRPPRLPRPRPRPWHDPRP,-0.112
5,RRIRHRPPRLPRPRPRPRKMPRP,-0.246
6,RRIRYRPPRLPRPRPRPCAGPRP,-0.0602
7,RRIRWRPPRLPRPRPRPMMVPRP,0.0168
8,RRIRIRPPRLPRPRPRPAVHPRP,-0.145
9,RRIRKRPPRLPRPRPRPWYNPRP,-0.00192
10,RRIRHRPPRLPRPRPRPETNPRP,0.0688
11,RRIRRRPPRLPRPRPRPFNFPRP,-0.473
12,RRIRPRPPRLPRPRPRPYYGPRP,-0.271
13,RRIRARPPRLPRPRPRPFIRPRP,-0.27
14,RRIRFRPPRLPRPRPRPPDAPRP,0.451
15,RRIRGRPPRLPRPRPRPHMYPRP,-0.0997
16,RRIRIRPPRLPRPRPRPQPWPRP,0.102
17,RRIRHRPPRLPRPRPRPRMHPRP,-0.0289
18,RRIRERPPRLPRPRPRPQKTPRP,-0.0465
19,RRIRPRPPRLPRPRPRPRTGPRP,1.03
20,RRIRVRPPRLPRPRPRPSHVPRP,-0.0313
21,RRIRMRPPRLPRPRPRPEPAPRP,3.51
22,RRIRNRPPRLPRPRPRPESDPRP,0.648
23,RRIRDRPPRLPRPRPRPWFHPRP,-0.00884
24,RRIRCRPPRLPRPRPRPVVKPRP,0.0236
25,RRIRDRPPRLPRPRPRPEVDPRP,0.00961
